Data set [1] concerns glucose-stimulated islets. Description: Inhibition of insulin secretion from glucose-stimulated islets (insulin ELISA). The data set is classed as cell-based, human. How it is done: To determine if the polypeptide constructs comprising a polypeptide having an amino acid sequence identity according to SEQ ID NO:49 or 50 are biologically active following administration (PO), the ability of PCT-OCT to inhibit insulin secretion from glucose-stimulated islets was tested. Triplicates of 25 human islets (from a donor pancreas procured from an IIDP-approved islet center) were plated in a 96-well plate containing 100 μl of CMRL islet media (such as available from MediaTech). The islets were pre-incubated with either 100 μl (50%) serum (serum was collected from pancreas donor), 100 μl (50%) serum+PT-OCT, or 100 μl (50%) serum+PT-OCT that was exposed to thrombin for 45 minutes to cleave the polypeptide sequence from the therapeutic octapeptide of the polypeptide construct. Following a pre-incubation, the media and serum was removed and replaced with KREB's buffer solution containing 16.7 mM glucose, and incubated for an additional 30 minutes, at which point the KREB's buffer was collected. Insulin concentrations of the supernatant was measured using commercially available ELISA kits (such as available from Abcam). […] (See FIG. 19)

The nature of data set [2]: Blood levels of polypeptide fragment after PO administration of PT-OCT (FIG. 19). The note with it: PO 600 μg/animal; 0, 3 and 5 hours. The data set is classed as in vivo, Wistar rats. How it is done: Blood samples were taken from the animals at 0, 3 and 5 hours post administration.
For data set [3], the system named is Caco-2 cells.
Description: (§1) (See Example 1) Caco-2 cells may be cultured in the presence of a polypeptide construct comprising a polypeptide and a heterologous polypeptide and analyzed using a fluorescent assay to determine the percentage of uptake of the polypeptide construct into the cells.
(§2) Polypeptide conjugates may be studied in vitro using Caco-2 cells, to assess uptake and bioactivity of the therapeutic polypeptide.
(§3) To mimic the steric conditions in the intestine in vivo, Caco-2 cells may be cultured on permeable filter inserts (such as available from Becton Dickenson, Corning, Costar).
(§4) Various polypeptide constructs were labeled with Alexa Fluor™ Labeling Kits (ThermoFisher), to generate fluorescently labeled polypeptide constructs. Caco-2 cells were seeded in 12-well plates and incubated for 4 hours with the labeled polypeptides at concentrations ranging from 2-10 ug/mL. Following incubation, the plates were read on a Tecan Infinite M Nano+ and washed gently several times with PBS, then given fresh media, and the plates were re-read. The % of fluorescence remaining in the dish represents the relative amount of uptake of polypeptide construct compared to the amount originally applied to the cells.
Data set [4] deals with Caco-2 cells. Description: Caco-2 uptake assay with fluorescently labeled polypeptide constructs. The conditions noted are these: for uptake (% of fluorescence remaining): Caco-2 uptake assay of Example 1.
Description: as §1, §2, §3, §4
The next data set has as its system blood glucose levels. Description: Blood glucose levels after PO administration of GLP-1 agonist constructs. It is filed as in vivo, Sprague Dawley rats. The conditions noted are these: for blood glucose level: 600 ug PO. The text has this:
GLP-1 agonists, such as exenatide and liraglutide are desirable candidates for formulation as an oral dose therapeutic. To test if a polypeptide according to SEQ ID 1-40, when linked to a GLP-1 agonist as a polypeptide construct, facilitates the transport of GLP-1 agonists from the stomach to the blood, following oral administration. The amino acid sequences for exenatide and liraglutide were used to clone the sequences behind (downstream) of a polypeptide comprising an amino acid sequence according to SEQ ID NO 1, in order to generate, using an expression vector system, peptide constructs comprising an amino acid sequence according to SEQ ID NOs: 42,44 (referred to in the figures as “PT-GA1” and “PT-GA2”, respectively). Also, generated was a polypeptide construct according to SEQ ID NO:46 (“PT-GA2B”), comprised of the liraglutide sequence flanked by a polypeptide according to SEQ ID NO 1 on both the carboxy and amino terminal end of the liraglutide sequence. […] (See FIG. 11) To test efficacy and bioavailability in vivo, Sprague Dawley rats were administered (PO) 600 ug of the compositions comprising polypeptide constructs selected from PT-GA1, PT-GA2 or PT-GA2B, blood was drawn at 0, 4, and 6 hrs. post-treatment, and blood glucose levels were measured. Following treatment, the blood glucose levels of the PT-GA1 treated animals went from 107 mg/dl at 0 hrs to 118 mg/dL at 4 hrs and dropped to 87.5 mg/dl at 6 hrs. post treatment, while the PT-GA2 and PT-GA2B were 98 mg/dl, 126, 111 mg/dL; and 102 mg/dL, 105 mg/dL, 104 mg/dl respectively.

Where two headings read alike, the source gives them in different places.

For “H-Met-Ala-Asp-Asp-Ala-Gly-Ala-Ala-Gly-Gly-Pro-Gly-Gly-Pro-Gly-Gly-Pro-Gly-Met-Gly-Asn-Arg-Gly-Gly-Phe-Arg-Gly-Gly-Phe-Gly-Ser-Gly-Ile-Arg-Gly-Arg-Gly-Arg-Gly-Arg-Gly-Arg-Gly-Arg-Gly-Arg-Gly-Arg-Gly-Nle (triazol-propionyl-D-Phe-Cys-Phe-D-Tru-Lys-Thr-Cys-Thr-ol)-OH [SEQ ID 50]”, the “relative insulin secretion by glucose-stimulated islet cells, compared to control (in words)” value in data set [1] was “reduction”. The “decrease of insulin secretion of glucose-stimulated islets” value in data set [1] (human islets, 50% serum pre-incubation, 16.7 mM glucose) is 46%. The “levels of polypeptide fragment according to SEQ ID 53 in blood (in words)” value in data set [2] is on record as “increasing levels”. The “uptake by Caco-2 cells / targeted delivery (in words)” value in the data set on Caco-2 cells [3] is reported as “taken up by Caco-2 cells”. Also, the “polypeptide constructs administered to Caco-2 cells taken up” value in the data set on Caco-2 cells [4] (in one example, PT-OCT fusion and PT-OCT click side-by-side) is “approximately 38%”.

For the molecule “MADDAGAAGGPGGPGGPGMGNRGGFRGGFGSGIRGRGRGRGRGRGRGRGAFCFWKTCT [SEQ ID 49]”, in the data set on Caco-2 cells [3], the “polypeptide constructs administered to Caco-2 cells taken up” value was “approximately 38%”.

B1: MADDAGAAGGPGGPGGPGMGNRGGFRGGFGSGIRGRGRGRGRGRGRGRGAHAEGTFTSDVSSYLEGQAAKEFIAWLVRGRGMADDAGAAGGPGGPGGPGMGNRGGFRGGFGSGIRGRGRGRGRGRGRGRGA (protein)
chain: MADDAGAAGGPGGPGGPGMGNRGGFRGGFGSGIRGRGRGRGRGRGRGRGAHAEGTFTSDVSSYLEGQAAKEFIAWLVRGRGMADDAGAAGGPGGPGGPGMGNRGGFRGGFGSGIRGRGRGRGRGRGRGRGA
Take B1: the results for the blood glucose level in the data set with blood glucose levels (0 hrs), in the data set with blood glucose levels (4 hrs post-treatment) and in the data set with blood glucose levels (6 hrs post-treatment) were 102 mg/dL, 105 mg/dL and 104 mg/dL, respectively. In addition, in the data set on Caco-2 cells [4], the “uptake (% of fluorescence remaining)” value was 29.4%.

B2: MADDAGAAGGPGGPGGPGMGNRGGFRGGFGSGIRGRGRGRGRGRGRGRGAHAEGTFTSDVSSYLEGQAAKEFIAWLVRGRG (protein)
chain: MADDAGAAGGPGGPGGPGMGNRGGFRGGFGSGIRGRGRGRGRGRGRGRGAHAEGTFTSDVSSYLEGQAAKEFIAWLVRGRG
B2: the blood glucose level turned out to be 98 mg/dL with blood glucose levels (0 hrs), 126 mg/dL with blood glucose levels (4 hrs post-treatment) and 111 mg/dL in the data set with blood glucose levels (6 hrs post-treatment). In addition, the “blood glucose levels following oral administration (in words)” value with blood glucose levels (600 μg in PBS) is “decrease in blood glucose levels”. In addition, in the data set on Caco-2 cells [4], the “uptake (% of fluorescence remaining)” value amounted to 31.4%.

(Values after US20250388638A1, “COMPOSITIONS AND METHODS FOR ORAL DELIVERY” (IMAGINE PHARMA LLC, priority 2021, published 2025).)
